# Laboratory results: US20200095636A1, “ANTIDOTE-MEDIATED REVERSAL OF EXTRACELLULAR APTAMER STAINING” (Duke University, published 2020)
# Columns and labels:
# [1] = biological target: epidermal growth factor receptor (EGFR) on A431 epidermoid carcinoma cells (human) (UniProt P00533); experiment: flow cytometry of stained A431 cells immediately before and after FACS
# [2] = biological target: EGFR (epidermal growth factor receptor) (Homo sapiens, UniProt P00533 P00533:25-1210); experiment: flow; apparent; A431 cells, on ice 30 min, media + 1% BSA + salmon sperm DNA; binding blocked or reversed at 37 C by antidotes A9 and mA9 but not scrambled sA9; details: tags: endogenous on A431 epidermoid carcinoma cells (ATCC); label: 5' AF488
# Procedure: All aptamers were folded in PBS+/+ by denaturation at 65° C. for 5 min followed by passive cooling to ambient temperature for 3 min. In general, 500 nM aptamer solutions were used for staining, but this concentration varied as noted in some assays. For aptamer-SA staining solutions, 2:1 aptamer conjugates were prepared with 1 μM aptamer and 500 nM AF488-SA or AF647-SA. All staining solutions were prepared in Media+ and contained 1 mg/mL salmon sperm DNA to mitigate non-specific binding. All antibodies were used as 1:50 dilutions in Media+ with 1 mg/mL salmon sperm DNA. Both FITC-conjugated ICR10 (Abcam) and PE-conjugated D1D4J (Cell Signaling Technologies) monoclonal EGFR antibodies were used for staining.
# A431 cells were stained with various concentrations (25, 50, 125, 250 or 500 nM) of E07 only or E07-SA conjugate mixtures prepared by reacting 1:1, 2:1 or 3:1 biotinylated E07 with tetrameric streptavidin. Stained cells were washed, analyzed by flow cytometry and their fluorescence corresponding to the amount of bound E07 or E07-SA was plotted to determine apparent binding affinities (dissociation constants; KD) and cell surface saturation (total number of receptors; Bmax). Conjugate mixtures prepared from higher E07: SA ratios had higher apparent affinities, but lower apparent saturation.
losses during sorting (percent of stain fluorescence lost) [1] [%],Molecule,Kd [2] [nM]
11,PE-conjugated D1D4J (Cell Signaling Technologies) monoclonal EGFR antibody,
11,FITC-conjugated ICR10 (Abcam) monoclonal EGFR antibody,
,"GGACGGAUUUAAUCGCCGUAGAAAGCAUGUCAAAGCCGGAACCGUCC (ssRNA, 2'-F C/U, 2'-OH purines, 3' idT) [E07]",62.7
